{"source": "patent US10280218B2", "about": "“Antibodies binding to BMP4, and uses thereof” (ACADEMISCH MEDISCH CENTRUM, priority 2014, dated 2019)", "molecules": {"B1": {"name": "hNoggin (protein)", "chain": "QHYLHIRPAPSDNLPLVDLIEHPDPIFDPKEKDLNETLLRSLLGGHYDPGFMATSPPEDRPGGGGGAAGGAEDLAELDQLLRQRPSGAMPSEIKGLEFSEGLAQGKKQRLSKKLRRKLQMWLWSQTFCPVLYAWNDLGSRFWPRYVKVGSCFSKRSCSVPEGMVCKPSKSVHLTVLRWRCQRRGGQRCGWIPIQYPIISECKCSC"}}, "test_system": "BMP12", "assay": "BMP activity luciferase reporter assay (BRE-luciferase, ID1 promoter) in C2C12 cells", "format": "cell-based, mouse", "conditions": "50 ng/ml hBMP12, 16 h; 500 ng/ml", "procedure": "C2C12 cells were plated in 96-well plates when they reached confluency, cells were treated in triplicate with 25 ng/ml of BMP9, 50 ng/ml of BMP10 or 50 ng/ml of BMP12 (all from R&D Systems), for 16 hours. VHHs or Noggin were added at a concentration of 5 ug/ml. C2C12 cells or HEK293 were plated on 12-well plates and starved for 5 hours, before stimulation with 2 ng/ml of TGF-β (R&D Systems) or 100 ng/ml Activin-A (R&D Systems), respectively. VHHs at the indicated concentrations were added at the same time. After 1 hour cells were lysed, and protein isolation and SDS-PAGE separation were performed as described previously. For protein detection the following antibodies were used: antiphospho-SMAD2 at 1:1000 (Cell Signaling).\nC2C12 cells were cultured in 96-well plates at 5×10^3 cells/well. After overnight attachment cells were stimulated with 10 ng/ml hBMP4 (Cat No. 314-BP-020; R&D Systems), 50 ng/ml hBMP2 (Cat No. 355-BM-010; R&D Systems), 200 ng/ml hBMP5 (Cat No. 615-BMC-020; R&D Systems), 50 ng/ml hBMP6 (Cat No. 506-BP-020; R&D Systems), 200 ng/ml hBMP7 (Cat No. 354-BP-010; R&D Systems), 25 ng/ml hBMP9 (Cat No. 3209-BP-010; R&D Systems), 25 ng/ml hBMP10 (Cat No. 2926-BP-025; R&D Systems), 50 ng/ml hBMP12 (Cat No. 779-G7-010; R&D Systems) and with or without VHH antibodies: C4C4 and C8C8 at 500 ng/ml; natural antagonist: mNoggin (Cat No. 1967-NG-025; R&D Systems), hNoggin (Cat No. 6057-NG; R&D Systems) and mGremlin (cat#956-GR-050; R&D Systems) at 500 ng/ml; chemical antagonist: 0.5 μM LDN-193189 (Cat No. 11802; Cayman Chemical) and 0.2 μM DMH1 (Cat No. 57146; Selleckchem)."}
{"molecule": "B1", "values": [{"measurement": "inhibition of BMP12 signals, comparison of inhibitors", "value": "inhibited"}]}
